Our source for the Kd values is PMC10752582 (eLife, 2023).

B1: BRAF-CRD only protein NT5 (residues 234-288) (domain or fragment, UniProt P15056 234-288, looked up)
chain: THNFVRKTFFTLAFCDFCRKLLFQGFRCQTCGYKFHQRCSTEVPLMCVNYDQLDL
notes: BRAF residues 234-288 (CRD only); also called BRAF NT5; source: E. coli BL21 codon +, purified
B2: 6xHis-BRAF kinase domain, wild type (amino acids 442-723 with 16 solubilizing mutations) (domain or fragment, UniProt P15056 442-723, looked up)
chain: GRRDSSDDWEIPDGQITVGQRIGSGSFGTVYKGKWHGDVAVKMLNVTAPTPQQLQAFKNEVGVLRKTRHVNILLFMGYSTKPQLAIVTQWCEGSSLYHHLHASETKFEMKKLIDIARQTARGMDYLHAKSIIHRDLKSNNIFLHEDNTVKIGDFGLATVKSRWSGSHQFEQLSGSILWMAPEVIRMQDSNPYSFQSDVYAFGIVLYELMTGQLPYSNINNRDQIIEMVGRGSLSPDLSKVRSNCPKRMKRLMAECLKKKRDERPSFPRILAEIEELARELSG
modifications: biotin (Sulfo-NHS-biotin, 50 molar excess) in the pull-downs on streptavidin beads
notes: BRAF kinase domain, amino acids 442-723, with 16 solubilizing mutations; Designed as in Cope et al., 2020; Amine-coupled to a carboxyl sensor in OpenSPR, biotinylated in pull-downs; also called KD; BRAF-KD; source: E. coli BL21 codon +, purified (cobalt resin, SEC); not shown: 6xHis, N-terminal, kept

What all share (test): SPR; OpenSPR; BRAF-KD WT or D594G amine-coupled to a carboxyl sensor (~6000 RUs), BRAF NTs flowed at 30 µL/min; 20 mM HEPES pH 7.4, 150 mM NaCl, 5% glycerol, 0.005% Tween-20, 1% BSA; 1:1 fit
Holding throughout (conditions): both partners purified
Background: Surface plasmon resonance follows binding to a sensor surface in real time, without labels.

Test [1] concerns the target B2.
The target of test [2] is T1, untagged BRAF NT1 (His/MBP-tag removed by TEV protease) (UniProt P15056 1-288).
T1 construct: BRAF residues 1-288 (BSR, RBD and CRD); also called untagged NT1; source: E. coli BL21 codon +, purified, tag cleaved with TEV protease; not shown: 6xHis, N-terminal, cleaved; MBP, N-terminal, cleaved

The target of test [3] is T2, His/MBP-BRAF NT1 (aa 1-288) (UniProt P15056 1-288).
T2 construct: BRAF residues 1-288 (BSR, RBD and CRD); Cloned in the pET28-MBP vector; also called His/MBP-NT1; source: E. coli BL21 codon +, purified (Ni-NTA, SEC); not shown: 6xHis, N-terminal, kept; MBP, N-terminal, kept

One may read the Kd as the constant that tells how readily two partners part at equilibrium. For the molecule B1, the Kd in test [1] is > 6000 nM.
With B2, the Kd turned out to be 13 nM in test [2] and 11 nM in test [3].
